Source: patent US7722863B2, “Use of granzyme b as an hsp70/hsp70 peptide dependent inducer of apoptosis in tumor cells” (Multimmune GmbH, priority 2002, dated 2010)

Legend:
[1] = biological target: T1, recombinant human Hsp70-protein (Homo sapiens, UniProt P0DMV8); experiment: Affinity chromatography of YT cell lysate, Western blot of eluates; assay type: binding; settings: Western blot with mAb 2C5, fraction F3
T1 construct: purchased Stressgen
Procedure: (§1) Bovine serum albumine (BSA, 1 mg/ml, Sigma-Aldrich, Steinheim, Germany), 1 mg/ml lyophylized, recombinant human Hsp70-protein (Stressgen, British Columbia, Canada) or 2 mg/mi Hsp70-peptide TKD (TKDNNLLGRFELSG (SEO ID NO:1), aa450-463, Bachem, Bubendorf, Switzerland) were incubated with equilibrated AminoLink agarose beads (Pierce, Rockford, USA) in 2 ml for 6 h, together with the reductant NaCNBH3. Binding capacity of BSA, Hsp70-protein and Hsp70-peptide TKD was greater 95%. Following removal of uncoupled material by extensive washing with Tris-buffer and quenching of non-reactive groups, cell lysates were administered to the BSA, Hsp70-protein and Hsp70-peptide TKD conjugated columns for 1 h.
(§2) After washing with 10 column volumes of 20 mM Tris buffer, bound proteins were eluted with 3 M sodium chloride in 20 mM Tris buffer, in 5 fractions. Each fraction was subjected to a 10% SDS-PAGE and blotted to PVDF membranes.
(§3) Following blocking in skim-milk (0.1%) and incubation with mAb directed against granzyme B 2C5 (IgG2a, Becton Dickinson, Heidelberg, Germany), at 4° C., for 5 h, Western blots were washed and incubated with a secondary mouse anti-IgG HRP Ab (Dianova, Hamburg, Germany), for 1 h. Proteins were detected using the ECL kit (Amersham Bioscience) for 5 sec. […]

Hsp70-peptide TKD = biological target: T2, Hsp70-peptide TKD (Homo sapiens, UniProt P0DMV8); experiment: as above; assay type: binding; settings: Western blot with mAb 2C5, fraction F3
T2 construct: Hsp70-peptide TKD (TKDNNLLGRFELSG (SEO ID NO:1), aa450-463, Bachem, Bubendorf, Switzerland); purchased Bachem
Procedure: as §1, §2, §3

T1 sequence (P0DMV8 whole entry): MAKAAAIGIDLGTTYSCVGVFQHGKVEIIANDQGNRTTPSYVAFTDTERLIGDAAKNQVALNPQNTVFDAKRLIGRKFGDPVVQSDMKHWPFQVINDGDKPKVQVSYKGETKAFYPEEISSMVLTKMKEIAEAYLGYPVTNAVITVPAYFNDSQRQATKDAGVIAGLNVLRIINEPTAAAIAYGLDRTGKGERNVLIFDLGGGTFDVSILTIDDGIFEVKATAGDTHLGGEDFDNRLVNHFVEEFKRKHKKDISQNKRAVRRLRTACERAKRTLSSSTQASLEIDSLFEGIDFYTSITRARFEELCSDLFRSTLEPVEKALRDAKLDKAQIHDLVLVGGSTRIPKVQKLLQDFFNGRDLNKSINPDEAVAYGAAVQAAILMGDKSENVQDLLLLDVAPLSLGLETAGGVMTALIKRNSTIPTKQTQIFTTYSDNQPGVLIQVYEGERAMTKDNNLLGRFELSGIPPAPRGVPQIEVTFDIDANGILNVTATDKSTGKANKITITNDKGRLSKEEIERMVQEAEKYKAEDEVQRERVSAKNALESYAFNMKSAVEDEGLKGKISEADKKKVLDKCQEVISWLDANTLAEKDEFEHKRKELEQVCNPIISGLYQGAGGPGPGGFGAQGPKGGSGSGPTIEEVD

granzyme B in YT cell eluates from Hsp70-protein column [1]: dominant 32 kDa granzyme B protein band
granzyme B in YT cell eluates from Hsp70-peptide (TKD) column (Hsp70-peptide TKD): dominant 32 kDa granzyme B protein band
Substance: granzyme B
